Data: US20220305136A1 (ASCENDIS PHARMA ONCOLOGY DIVISION A S, published 2022)

Target: T1, human CTLA-4 (AA Ala37-Ser160)-Fc Tag fusion protein (human, UniProt P16410 37-160)
T1 construct: range 37-160; Bought reagent, coated on ELISA wells as the capture protein; also called AcroBiosystem catalog no; CT4-H5255; not shown: Fc Tag of the bought fusion protein
T1 sequence (looked up): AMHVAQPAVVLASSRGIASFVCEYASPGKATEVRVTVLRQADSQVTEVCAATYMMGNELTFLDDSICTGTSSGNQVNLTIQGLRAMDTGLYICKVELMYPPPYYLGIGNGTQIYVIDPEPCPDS
Experiment: in-house sandwich ELISA; CTLA-4-Fc coated on plate captures HHC^MET from rat plasma; read-out with rabbit anti-camelid VHH antibody-HRP
Description: These solutions were used for the generation of a calibration curve.

B1: HHC^MET (VHH)
chain: EVQLVESGGGLVQAGGSLRLSCAASGGTFSFYGMGWFRQAPGKEQEFVADIRTSAGRTYYADSVKGRFTISRDNAKNTVYLQMNSLKPEDTAVYYCAAEMSGISGWDYWGQGTQVTVSSGGGGSGGGSEVQLVESGGGLVQAGGSLRLSCAASGGTFSFYGMGWFRQAPGKEQEFVADIRTSAGRTYYADSVKGRFTISRDNAKNTVYLQMNSLKPEDTAVYYCAAEMSGISGWDYWGQGTQVTVSS
notes: Custom made, expressed in E. coli; The assay measured free HHC^MET in rat plasma, either spiked in as standard or released from the hydrogel prodrug; also called HHC^MET-NH2
B1: binds.
